Measurements taken from patent publication US20130064834A1 (published 2013).

How the values were obtained:
hPCSK9(D374Y)-mmh [1] = molecular target: T1, hPCSK9(D374Y)-mmh (human, UniProt Q8NBP7 31-692); assay: SPR, mAb captured on anti-hFc, 37C
T1 construct: also called hPCSK(D374Y)-mmh

[2] = molecular target: T2, mouse PCSK9, myc-myc-his tagged (mouse, UniProt Q80W65 35-694); assay: SPR, mAb captured on anti-hFc, 37C
T2 construct: also called mPCSK9-mmh; mPCSK9

[3] = molecular target: T3, rat (Rattus norvegicus) PCSK9, myc-myc-his tagged (rat (Rattus norvegicus), UniProt P59996 31-691); assay: SPR, mAb captured on anti-hFc, 37C
T3 construct: also called rPCSK9-mmh; rPCSK9
T3 sequence (P59996 31-691 limits assumed): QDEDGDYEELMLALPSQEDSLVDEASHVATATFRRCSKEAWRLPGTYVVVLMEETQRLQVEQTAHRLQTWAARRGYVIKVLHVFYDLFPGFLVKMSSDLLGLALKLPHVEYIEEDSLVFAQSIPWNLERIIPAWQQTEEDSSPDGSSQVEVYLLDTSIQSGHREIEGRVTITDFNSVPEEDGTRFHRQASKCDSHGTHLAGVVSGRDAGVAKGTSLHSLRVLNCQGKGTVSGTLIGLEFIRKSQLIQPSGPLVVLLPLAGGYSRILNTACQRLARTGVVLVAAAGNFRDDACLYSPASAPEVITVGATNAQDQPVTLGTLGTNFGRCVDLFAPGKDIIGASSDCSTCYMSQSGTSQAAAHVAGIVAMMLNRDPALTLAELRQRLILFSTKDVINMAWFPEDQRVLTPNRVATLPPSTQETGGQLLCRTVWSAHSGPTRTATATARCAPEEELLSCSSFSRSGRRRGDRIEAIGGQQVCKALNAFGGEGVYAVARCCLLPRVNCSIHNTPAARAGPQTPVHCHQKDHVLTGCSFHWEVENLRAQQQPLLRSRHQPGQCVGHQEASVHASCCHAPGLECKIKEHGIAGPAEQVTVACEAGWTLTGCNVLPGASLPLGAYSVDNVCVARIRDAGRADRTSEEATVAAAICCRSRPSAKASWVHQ

[4] = molecular target: T4, his-tagged Syrian golden hamster (Mesocricetus auratus) PCSK9 (Syrian golden hamster (Mesocricetus …)); assay: SPR, mAb captured on anti-hFc, 37C
T4 construct: also called maPCSK9-h; maPCSK9
T4 chain: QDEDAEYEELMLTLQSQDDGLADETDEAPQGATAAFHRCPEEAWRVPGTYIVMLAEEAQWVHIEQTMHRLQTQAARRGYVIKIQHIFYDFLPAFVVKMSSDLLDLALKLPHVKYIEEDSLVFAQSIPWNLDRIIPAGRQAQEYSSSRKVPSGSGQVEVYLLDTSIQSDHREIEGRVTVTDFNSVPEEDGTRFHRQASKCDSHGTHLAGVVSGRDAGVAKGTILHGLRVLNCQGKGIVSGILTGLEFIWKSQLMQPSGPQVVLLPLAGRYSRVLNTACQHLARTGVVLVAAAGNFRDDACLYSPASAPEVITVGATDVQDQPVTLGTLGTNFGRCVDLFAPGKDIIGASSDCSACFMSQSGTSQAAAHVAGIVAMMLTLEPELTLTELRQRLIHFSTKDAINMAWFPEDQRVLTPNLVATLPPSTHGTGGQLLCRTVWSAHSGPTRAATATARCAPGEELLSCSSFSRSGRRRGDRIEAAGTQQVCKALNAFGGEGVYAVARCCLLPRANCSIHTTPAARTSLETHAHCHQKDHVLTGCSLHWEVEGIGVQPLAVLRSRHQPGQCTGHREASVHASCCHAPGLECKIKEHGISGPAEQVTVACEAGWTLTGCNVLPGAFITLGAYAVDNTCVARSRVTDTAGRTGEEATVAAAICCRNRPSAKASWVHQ

[5] = molecular target: T5, cynomolgus monkey (Macaca fascicularis) PCSK9, myc-myc-his tagged (cynomolgus monkey (Macaca fascicularis), UniProt A8T662 31-692 (Macaca nemestrina entry), limits assumed); assay: SPR, mAb captured on anti-hFc, 37C
T5 construct: also called mfPCSK9-mmh; mfPCSK9
T5 sequence (A8T662 31-692 limits assumed): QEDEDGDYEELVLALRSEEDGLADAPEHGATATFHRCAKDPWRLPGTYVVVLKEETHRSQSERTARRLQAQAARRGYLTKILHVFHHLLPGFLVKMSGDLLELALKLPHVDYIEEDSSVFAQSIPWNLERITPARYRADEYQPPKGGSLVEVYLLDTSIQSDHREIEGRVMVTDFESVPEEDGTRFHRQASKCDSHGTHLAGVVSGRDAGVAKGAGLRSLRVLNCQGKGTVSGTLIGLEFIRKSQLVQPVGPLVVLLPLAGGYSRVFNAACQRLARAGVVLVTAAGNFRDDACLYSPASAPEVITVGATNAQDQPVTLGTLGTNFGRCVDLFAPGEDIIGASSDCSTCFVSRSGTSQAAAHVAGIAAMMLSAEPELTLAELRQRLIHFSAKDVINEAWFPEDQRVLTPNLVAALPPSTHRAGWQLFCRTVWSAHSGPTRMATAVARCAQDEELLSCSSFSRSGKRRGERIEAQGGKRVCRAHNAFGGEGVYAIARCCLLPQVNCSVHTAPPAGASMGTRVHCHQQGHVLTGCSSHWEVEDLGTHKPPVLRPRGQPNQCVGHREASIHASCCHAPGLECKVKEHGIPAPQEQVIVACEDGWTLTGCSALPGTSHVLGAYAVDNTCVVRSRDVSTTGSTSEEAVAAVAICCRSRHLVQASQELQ

hPCSK9(D374Y)-mmh [6] = molecular target: T1, hPCSK9(D374Y)-mmh; assay: SPR, mAb captured on anti-hFc, 25C
Human PCSK9-myc-myc-his = molecular target: T6, Human PCSK9-myc-myc-his (human, UniProt Q8NBP7 31-692); assay: SPR, mAb captured on anti-hFc, 25C
T6 construct: also called hPCSK9-mmh; hPCSK9

[7] = molecular target: T2, mouse PCSK9, myc-myc-his tagged; assay: SPR, mAb captured on anti-hFc, 25C
Target sequence in this assay (Q80W65 35-694 limits assumed): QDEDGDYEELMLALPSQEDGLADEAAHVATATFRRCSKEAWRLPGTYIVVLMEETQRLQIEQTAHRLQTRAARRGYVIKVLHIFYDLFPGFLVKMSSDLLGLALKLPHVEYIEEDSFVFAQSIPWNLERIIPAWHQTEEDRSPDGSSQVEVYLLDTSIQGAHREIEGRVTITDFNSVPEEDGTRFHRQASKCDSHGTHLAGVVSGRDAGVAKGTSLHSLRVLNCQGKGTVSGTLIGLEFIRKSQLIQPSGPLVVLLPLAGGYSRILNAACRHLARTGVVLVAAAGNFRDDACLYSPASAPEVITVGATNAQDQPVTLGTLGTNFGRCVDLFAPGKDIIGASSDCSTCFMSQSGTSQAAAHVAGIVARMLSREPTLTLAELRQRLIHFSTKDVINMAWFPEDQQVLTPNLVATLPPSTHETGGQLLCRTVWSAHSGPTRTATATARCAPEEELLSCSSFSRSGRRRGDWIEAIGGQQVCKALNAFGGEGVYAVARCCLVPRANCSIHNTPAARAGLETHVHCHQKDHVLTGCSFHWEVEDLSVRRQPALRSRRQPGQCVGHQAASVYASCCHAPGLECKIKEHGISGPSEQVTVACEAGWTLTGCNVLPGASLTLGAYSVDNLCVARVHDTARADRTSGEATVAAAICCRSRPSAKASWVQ

[8] = molecular target: T3, rat (Rattus norvegicus) PCSK9, …; assay: SPR, mAb captured on anti-hFc, 25C
[9] = molecular target: T7, tagged rhesus monkey (Macaca mulata) PCSK9 (rhesus monkey (Macaca mulata), UniProt A8T666 31-692); assay: SPR, mAb captured on anti-hFc, 25C
T7 construct: also called mmPCSK9-mmh; mmPCSK9
T7 sequence (A8T666 31-692 limits assumed): as the sequence (A8T662 31-692 limits assumed) above, with A607P, E639K counted along it

[10] = molecular target: T4, his-tagged Syrian golden hamster …; assay: SPR, mAb captured on anti-hFc, 25C
[11] = molecular target: T5, cynomolgus monkey (Macaca fascicularis) …; assay: SPR, mAb captured on anti-hFc, 25C
[12] = molecular target: T7, tagged rhesus monkey (Macaca mulata) …; assay: SPR, 25C
[13] = molecular target: T8, Chimeric protein #3 (mPro-mCat-hC-term-mmh) (mouse; human); assay: SPR, mAb captured on anti-hFc, 100 nM antigen
T8 chain: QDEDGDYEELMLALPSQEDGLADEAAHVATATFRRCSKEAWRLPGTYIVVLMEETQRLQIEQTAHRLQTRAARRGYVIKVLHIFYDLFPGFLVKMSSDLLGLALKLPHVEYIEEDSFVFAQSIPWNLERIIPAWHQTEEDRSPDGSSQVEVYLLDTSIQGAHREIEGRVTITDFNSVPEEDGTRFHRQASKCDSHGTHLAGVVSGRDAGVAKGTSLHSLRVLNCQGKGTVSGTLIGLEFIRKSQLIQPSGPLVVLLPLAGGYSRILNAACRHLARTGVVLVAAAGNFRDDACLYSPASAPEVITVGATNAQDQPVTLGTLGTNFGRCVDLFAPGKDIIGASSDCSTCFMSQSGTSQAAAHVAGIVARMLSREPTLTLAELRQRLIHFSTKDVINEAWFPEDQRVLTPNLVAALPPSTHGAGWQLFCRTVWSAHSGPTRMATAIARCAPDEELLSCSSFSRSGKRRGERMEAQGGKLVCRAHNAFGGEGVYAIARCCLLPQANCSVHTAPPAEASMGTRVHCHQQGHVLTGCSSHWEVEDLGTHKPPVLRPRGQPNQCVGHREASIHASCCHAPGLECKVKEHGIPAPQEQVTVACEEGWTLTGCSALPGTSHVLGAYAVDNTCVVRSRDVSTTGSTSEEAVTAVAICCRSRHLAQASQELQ
Method: Changes in RU due to the binding of each protein to the mAb surface was determined.

[14] = molecular target: T8, Chimeric protein #3 …; assay: ELISA, mAb coated, 1.7 nM antigen

B1: H1H316P (antibody, V domains shown)
VH: EVQLVESGGGLVQPGGSLRLSCAASGFTFNNYAMNWVRQAPGKGLDWVSTISGSGGTTNYADSVKGRFIISRDSSKHTLYLQMNSLRAEDTAVYYCAKDSNWGNFDLWGRGTLVTVSS
VL: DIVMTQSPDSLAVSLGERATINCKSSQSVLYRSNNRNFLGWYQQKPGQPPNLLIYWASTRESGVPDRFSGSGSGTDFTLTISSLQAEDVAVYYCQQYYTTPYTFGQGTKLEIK
notes: Fully human mAb made in CHO cells; also called mAb316P
In the case of B1, the Kd (hPCSK9(D374Y)-mmh [1]) is reported as 4.2 nM, the T1/2 (hPCSK9(D374Y)-mmh [1]) is reported as 4 min and the Kd [2] is reported as 4.7 nM. For the same binder, the T1/2 [2] was 3 min, the Kd [3] was 37.5 nM and the T1/2 [3] was 1 min. For the same binder, the Kd [4] was 19 nM, the T1/2 [4] was 1 min and the Kd [5] was 1.8 nM. For the same binder, the T1/2 [5] was 11 min, the Kd (hPCSK9(D374Y)-mmh [6]) was 1.69 nM and the T1/2 (hPCSK9(D374Y)-mmh [6]) was 15 min. For the same binder, the Kd (Human PCSK9-myc-myc-his) was 0.58 nM, the T1/2 (Human PCSK9-myc-myc-his) was 36 min and the Kd [7] was 2.3 nM. The T1/2 [7] was 11 min, the Kd [8] was 14.5 nM and the T1/2 [8] was 2 min. For the same binder, the Kd [9] was 0.55 nM, the T1/2 [9] was 92 min and the Kd [10] was 6.81 nM. It also gave a T1/2 [10] of 5 min, a Kd [11] of 0.52 nM and a T1/2 [11] of 60 min. The T1/2 [12] was 51 min, the koff [12] was 0.000229 s⁻¹ and the “change in RU” value [13] was 467 RU. The OD [14] was greater than 1.5 od.
